Experimental data as given in patent publication US20220213153A1 (University of Washington, published 2022).

Assays:
[1] = target: T1, D2_Wm-01B; assay: Ni-NTA pulldown of bicistronically co-expressed components (one His-tagged), SDS-PAGE, SEC, SAXS
T1 construct: De novo designed component of the two-component D2 dihedral ring D2_Wm-01; untagged (only one component carries the 6xHis tag); also called component B of D2_Wm-01; D2-1
T1 chain: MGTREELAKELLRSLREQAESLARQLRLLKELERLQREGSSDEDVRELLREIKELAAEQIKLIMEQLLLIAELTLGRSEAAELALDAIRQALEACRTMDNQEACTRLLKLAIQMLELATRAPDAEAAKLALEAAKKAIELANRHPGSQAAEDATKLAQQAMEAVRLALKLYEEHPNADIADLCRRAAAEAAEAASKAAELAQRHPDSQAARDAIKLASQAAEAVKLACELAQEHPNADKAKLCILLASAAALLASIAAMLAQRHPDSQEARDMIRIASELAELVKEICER

[2] = target: T2, D2_Wm-02B; assay: as above
T2 construct: De novo designed component of the two-component D2 dihedral ring D2_Wm-02; also called component B of D2_Wm-02; D2-2
T2 chain: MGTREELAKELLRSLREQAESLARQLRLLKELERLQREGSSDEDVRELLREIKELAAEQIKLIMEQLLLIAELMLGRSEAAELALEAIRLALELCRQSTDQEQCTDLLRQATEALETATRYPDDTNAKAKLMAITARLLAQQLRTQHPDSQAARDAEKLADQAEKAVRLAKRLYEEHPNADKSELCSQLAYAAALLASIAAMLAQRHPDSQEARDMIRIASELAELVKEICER

[3] = target: T3, D2_Wm-01_truncB; assay: SEC and negative-stain EM of the two-component ring
T3 construct: D2_Wm-01B with one heptad deleted from the homodimer helices; also called component B of D2_Wm-01_trunc; D2-1_trunc
T3 chain: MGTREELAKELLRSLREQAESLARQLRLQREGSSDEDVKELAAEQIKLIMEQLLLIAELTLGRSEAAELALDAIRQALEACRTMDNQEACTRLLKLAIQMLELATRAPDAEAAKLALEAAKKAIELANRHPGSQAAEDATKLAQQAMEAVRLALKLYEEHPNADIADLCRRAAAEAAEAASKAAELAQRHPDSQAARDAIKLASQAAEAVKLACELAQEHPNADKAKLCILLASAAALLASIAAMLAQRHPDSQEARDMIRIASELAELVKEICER

B1: D2_Wm-01A (designed binder)
chain: MGTREESLKEQLRSLREQAELAARLLRLLKELERLQREGSSDEDVRELLREIKELVAEIIKLIMEQLLLIAEQLLGRSEAAELALRAIRLALELCRQSTDLEECLRLLKTAIKALENALRHPDSTTAKARLMAITARLLAQQLRTQHPDSQAARDAEKLADQAERAVRLATRLYEEHPNAEISEMCSQAAYAAALMASIAAILAQRHPDSQIARDLIRLASELAEMVKRMCERGGSWGLEHHHHHH
notes: De novo designed component of the two-component D2 dihedral ring D2_Wm-01 (8 chains in all, 2 chains as the asymmetric unit); also called component A of D2_Wm-01; D2-1
binding result [1]: binds

B2: D2_Wm-02A (designed binder)
chain: MGTREEIIRELARSLAEQAELTARLERSLREQERLQREGSSDEDVRELIREQKELVREILKLIAEQILLIAELLLASTRSEAAELALRAIRNAIEACKNADNEEMCRQLMRMAQNALELATQAPDAEAAKAALRAIDLAVELASRHPGSQAADDALKLAQQAAEAVKLALDLYREHPNADIADLCRKAAKEAAEAASKAAELAQRHPDSQAARDAIKLASQAAEAVKLACELAQEHPNAEIAKMCILAASAAALMASIAAILAQRHPDSQIARDLIRLASELAEMVKRMCERGGSWGLEHHHHHH
notes: De novo designed component of the two-component D2 dihedral ring D2_Wm-02; also called component A of D2_Wm-02; D2-2
binding result [2]: binds

B3: D2_Wm-01_truncA (designed binder)
chain: MGTREESLKEQLRSLREQAELAARLLRLQREGSSDEDVKELVAEIIKLIMEQLLLIAEQLLGRSEAAELALRAIRLALELCRQSTDLEECLRLLKTAIKALENALRHPDSTTAKARLMAITARLLAQQLRTQHPDSQAARDAEKLADQAERAVRLATRLYEEHPNAEISEMCSQAAYAAALMASIAAILAQRHPDSQIARDLIRLASELAEMVKRMCERGGSWGLEHHHHHH
notes: D2_Wm-01A with one heptad deleted from the homodimer helices; also called component A of D2_Wm-01_trunc; D2-1_trunc
binding result [3]: binds
